In patent publication US20200157212A1 (Pfizer, published 2020):
Substitutions are numbered along the chain they refer to. Each block holds one binder with its values, some of them ahead of it.

Assays:
[1] = target: T1, Cynomolgus monkey ROBO2 overexpressed on HEK293 cells (cynomolgus monkey, UniProt Q9HCK4 22-1378 (human entry)); assay: flow cytometry, HEK293 cells
T1 chain: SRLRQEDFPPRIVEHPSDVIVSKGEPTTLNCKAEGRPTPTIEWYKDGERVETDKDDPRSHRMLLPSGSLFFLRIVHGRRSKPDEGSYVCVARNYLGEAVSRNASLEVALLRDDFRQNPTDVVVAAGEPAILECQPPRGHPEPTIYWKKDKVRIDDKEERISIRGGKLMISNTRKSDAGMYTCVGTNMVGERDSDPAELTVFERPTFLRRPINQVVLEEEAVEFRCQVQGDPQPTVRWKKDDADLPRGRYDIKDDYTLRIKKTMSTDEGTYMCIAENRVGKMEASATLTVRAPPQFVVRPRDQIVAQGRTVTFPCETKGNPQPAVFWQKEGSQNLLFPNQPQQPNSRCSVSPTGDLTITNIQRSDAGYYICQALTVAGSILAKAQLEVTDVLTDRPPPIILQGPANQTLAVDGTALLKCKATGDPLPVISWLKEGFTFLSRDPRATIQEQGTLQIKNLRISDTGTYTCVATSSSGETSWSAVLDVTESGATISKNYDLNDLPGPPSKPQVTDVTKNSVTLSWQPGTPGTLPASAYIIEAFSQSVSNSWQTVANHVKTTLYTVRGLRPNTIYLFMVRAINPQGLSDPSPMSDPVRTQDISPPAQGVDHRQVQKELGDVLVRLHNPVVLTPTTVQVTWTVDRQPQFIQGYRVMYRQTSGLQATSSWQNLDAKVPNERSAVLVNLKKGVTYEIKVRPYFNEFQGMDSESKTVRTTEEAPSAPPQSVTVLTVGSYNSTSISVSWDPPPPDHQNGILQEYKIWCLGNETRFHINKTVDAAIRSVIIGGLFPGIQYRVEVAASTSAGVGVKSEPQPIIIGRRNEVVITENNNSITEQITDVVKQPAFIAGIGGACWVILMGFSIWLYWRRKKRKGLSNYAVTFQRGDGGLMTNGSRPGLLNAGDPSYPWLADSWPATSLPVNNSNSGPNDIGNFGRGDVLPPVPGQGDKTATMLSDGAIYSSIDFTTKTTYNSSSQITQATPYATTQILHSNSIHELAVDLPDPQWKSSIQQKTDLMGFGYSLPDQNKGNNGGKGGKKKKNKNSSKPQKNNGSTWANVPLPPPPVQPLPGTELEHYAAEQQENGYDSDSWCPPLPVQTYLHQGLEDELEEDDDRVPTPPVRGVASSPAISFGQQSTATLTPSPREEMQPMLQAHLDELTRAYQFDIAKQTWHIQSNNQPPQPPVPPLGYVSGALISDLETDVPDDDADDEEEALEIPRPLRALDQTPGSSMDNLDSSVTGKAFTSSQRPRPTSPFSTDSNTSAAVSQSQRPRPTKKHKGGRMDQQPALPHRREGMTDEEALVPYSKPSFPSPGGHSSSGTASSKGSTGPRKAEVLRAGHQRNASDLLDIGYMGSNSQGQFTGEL
Description: (§1) Using flow cytometry, improvement in the binding EC₅₀ to human ROBO2 relative to the parental 93H2 was evaluated. Starting at 6.7 nM, 11-point, 3-fold dilution series were made for each antibody and used to stain HEK293 overexpressing human ROBO2 as described above for the ROBO2 fold selectivity (Example 2). […] In addition to measuring improved binding to human ROBO2, it was important to ensure that high affinity binding to both cynomolgus monkey ROBO2 and rat ROBO2 was maintained. Using HEK293 cells overexpressing either cynomolgus monkey ROBO2 or rat ROBO2, the relative dose-dependent binding of 93H2, Abcs25 and Abcs35 was evaluated as described above. High affinity binding to both cynomolgus monkey and rat ROBO2 was maintained in Abcs25 and Abcs35 (Table 4). […] Briefly, Abcs35 was immobilized to 300 resonance units (RU) on a CM5 chip. Association of ROBO2 Ig1-Ig2-His (ROBO2) was measured over 5 minutes and dissociation was followed for a period of 10 minutes.
(§2) The binding profile of Abcs35-J compared to Abcs35 was determined for human ROBO2, orthologs from cynomolgus monkey and rat, human ROBO1 and specificity for the RSK epitope from ROBO2 but not KSR from ROBO1. Binding was assessed by flow cytometry as described in Examples 2 (homolog specificity), Example 3 (ortholog reactivity) and Example 5 (RSK vs KSR epitope specificity). […] Binding of the antibodies was detected using a secondary fluorochrome conjugated anti-human IgG F(ab′)₂ antibody and samples analyzed on a Fortessa cytometer (BD Biosciences).

[2] = target: T2, Human ROBO1 RSK mutant overexpressed on HEK293 cells (human, UniProt Q9Y6N7 26-1651); assay: flow cytometry, HEK293 cells
T2 construct: K137R and R139K already in the entry; also called ROBO1-RSK cells
T2 sequence (Q9Y6N7 other isoform, or with tags, fused parts or gaps mutant limits assumed): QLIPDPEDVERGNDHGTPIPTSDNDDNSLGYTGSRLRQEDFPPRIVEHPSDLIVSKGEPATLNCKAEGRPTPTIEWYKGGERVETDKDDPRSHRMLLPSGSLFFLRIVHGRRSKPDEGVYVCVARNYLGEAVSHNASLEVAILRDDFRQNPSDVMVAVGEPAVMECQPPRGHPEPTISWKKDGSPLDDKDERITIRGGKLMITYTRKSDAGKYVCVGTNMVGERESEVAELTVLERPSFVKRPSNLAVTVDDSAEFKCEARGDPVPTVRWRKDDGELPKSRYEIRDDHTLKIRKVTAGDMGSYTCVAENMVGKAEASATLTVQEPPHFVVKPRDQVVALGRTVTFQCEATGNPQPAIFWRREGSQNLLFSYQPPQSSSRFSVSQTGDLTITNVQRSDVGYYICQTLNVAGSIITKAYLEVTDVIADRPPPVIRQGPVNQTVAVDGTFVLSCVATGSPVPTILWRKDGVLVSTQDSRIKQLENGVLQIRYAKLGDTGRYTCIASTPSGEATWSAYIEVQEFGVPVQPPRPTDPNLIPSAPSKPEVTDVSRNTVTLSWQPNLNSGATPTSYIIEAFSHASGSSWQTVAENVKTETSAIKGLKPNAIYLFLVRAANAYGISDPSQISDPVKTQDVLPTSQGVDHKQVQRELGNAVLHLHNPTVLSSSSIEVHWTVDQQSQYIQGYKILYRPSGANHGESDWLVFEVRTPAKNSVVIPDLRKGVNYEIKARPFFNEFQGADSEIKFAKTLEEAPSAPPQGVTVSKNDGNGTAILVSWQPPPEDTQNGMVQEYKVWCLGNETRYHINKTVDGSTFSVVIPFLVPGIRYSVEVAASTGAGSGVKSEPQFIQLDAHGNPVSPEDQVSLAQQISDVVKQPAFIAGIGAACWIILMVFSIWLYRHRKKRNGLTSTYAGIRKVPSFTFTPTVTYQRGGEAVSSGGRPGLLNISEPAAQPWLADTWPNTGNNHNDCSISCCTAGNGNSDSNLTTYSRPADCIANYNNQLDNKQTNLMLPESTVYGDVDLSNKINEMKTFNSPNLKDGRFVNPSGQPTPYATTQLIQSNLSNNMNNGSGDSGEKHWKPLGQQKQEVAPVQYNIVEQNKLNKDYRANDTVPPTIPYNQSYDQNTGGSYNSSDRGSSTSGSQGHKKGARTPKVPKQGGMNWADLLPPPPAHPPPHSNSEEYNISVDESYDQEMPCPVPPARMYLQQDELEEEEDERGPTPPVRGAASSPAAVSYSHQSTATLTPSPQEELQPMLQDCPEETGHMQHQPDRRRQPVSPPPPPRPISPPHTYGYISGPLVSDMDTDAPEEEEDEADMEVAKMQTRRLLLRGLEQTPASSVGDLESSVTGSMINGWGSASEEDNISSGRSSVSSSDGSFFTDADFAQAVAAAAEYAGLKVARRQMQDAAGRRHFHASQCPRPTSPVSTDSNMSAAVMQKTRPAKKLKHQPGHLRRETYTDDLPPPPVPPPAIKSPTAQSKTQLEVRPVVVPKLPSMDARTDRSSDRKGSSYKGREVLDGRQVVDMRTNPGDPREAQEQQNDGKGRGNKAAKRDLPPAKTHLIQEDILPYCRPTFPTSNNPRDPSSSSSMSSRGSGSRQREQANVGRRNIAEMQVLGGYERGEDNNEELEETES
Description: as §1, §2

B1: Abcs35 (antibody, human IgG1, kappa)
heavy: EVQLVQSGAEVKKPGASVKVSCKASGYTFTGYYMHWVRQAPGQGLEWMGWINPKNGDTEFPQKFQGRVTMTRDTSITTAYMDLSRLRSDDTAVYYCARESGDDAFDIWGQGTMVTVSSASTKGPSVFPLAPSSKSTSGGTAALGCLVKDYFPEPVTVSWNSGALTSGVHTFPAVLQSSGLYSLSSVVTVPSSSLGTQTYICNVNHKPSNTKVDKKVEPKSCDKTHTCPPCPAPEAAGAPSVFLFPPKPKDTLMISRTPEVTCVVVDVSHEDPEVKFNWYVDGVEVHNAKTKPREEQYNSTYRVVSVLTVLHQDWLNGKEYKCKVSNKALPAPIEKTISKAKGQPREPQVYTLPPSREEMTKNQVSLTCLVKGFYPSDIAVEWESNGQPENNYKTTPPVLDSDGSFFLYSKLTVDKSRWQQGNVFSCSVMHEALHNHYTQKSLSLSPGK
light: DIVMTQSPSSLSASVGDRVTITCRASQSISSYLNWYQQKPGKAPKLLIYAASSLQSGVPSRFSGSGSGTDFTLTISSLQPEDFATYYCQQSVGLFFGGGTKVEIKRTVAAPSVFIFPPSDEQLKSGTASVVCLLNNFYPREAKVQWKVDNALQSGNSQESVTEQDSKDSTYSLSSTLTLSKADYEKHKVYACEVTHQGLSSPVTKSFNRGEC
notes: fully human IgG1; VH of Ab96 with VL of Ab123
EC50 [1]: 0.111 nM | EC50 [2]: 0.077 nM

EC50 [1]: 0.099 nM | EC50 [2]: 0.079 nM
B2: Abcs35-J (antibody, human IgG1, kappa)
heavy: B1 heavy with D82E
light: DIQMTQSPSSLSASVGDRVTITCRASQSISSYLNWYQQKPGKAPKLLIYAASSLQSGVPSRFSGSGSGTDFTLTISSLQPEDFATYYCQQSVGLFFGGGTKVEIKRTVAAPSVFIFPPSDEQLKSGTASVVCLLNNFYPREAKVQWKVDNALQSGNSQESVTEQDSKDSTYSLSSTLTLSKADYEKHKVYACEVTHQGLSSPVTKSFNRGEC
notes: germlined variant of Abcs35; also called ABCS-J
